# From patent US6261772
# Experiments:
# [1] = target: T1, VP16-HA-Tap full length (Homo sapiens) (UniProt Q9UBU9); test: one_hybrid
# T1 sequence: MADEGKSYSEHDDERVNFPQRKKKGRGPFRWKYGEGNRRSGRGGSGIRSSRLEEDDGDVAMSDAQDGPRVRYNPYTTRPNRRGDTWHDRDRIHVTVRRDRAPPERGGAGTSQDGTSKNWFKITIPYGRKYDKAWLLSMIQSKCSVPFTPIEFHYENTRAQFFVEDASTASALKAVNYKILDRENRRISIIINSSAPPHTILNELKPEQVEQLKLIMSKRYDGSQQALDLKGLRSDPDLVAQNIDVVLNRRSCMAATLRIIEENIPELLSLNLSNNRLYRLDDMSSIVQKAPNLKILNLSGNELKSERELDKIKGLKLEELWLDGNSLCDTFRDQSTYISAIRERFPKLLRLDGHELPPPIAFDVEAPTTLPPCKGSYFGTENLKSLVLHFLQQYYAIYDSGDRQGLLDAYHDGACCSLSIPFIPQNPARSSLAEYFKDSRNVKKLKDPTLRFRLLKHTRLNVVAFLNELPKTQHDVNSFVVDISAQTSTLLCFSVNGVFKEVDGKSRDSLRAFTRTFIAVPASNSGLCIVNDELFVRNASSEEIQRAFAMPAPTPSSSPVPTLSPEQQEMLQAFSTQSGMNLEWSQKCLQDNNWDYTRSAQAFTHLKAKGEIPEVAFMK
# [2] = target: T2, Tat-Tap full length (Homo sapiens) (UniProt Q9UBU9); test: cell_activity; settings: 293T
# T2 sequence: T1 sequence
Substance,activity ([1]; yeast three-hybrid),"activity ([1]; yeast three-hybrid beta-gal, VP16 alone 11)",activity (fold activation) [2]
iron response element,< 4 mOD/ml,–,–
HIV-1 TAR,< 4 mOD/ml,–,–
CTE antisense,< 4 mOD/ml,–,–
MPMV CTE,–,602 mOD/ml,20
